The source of these data is paper PMC2967368.

The target of experiment [1] is Survivin (UniProt O15392). Nature of the experiment: peptide pull-down, Coomassie staining. Particulars: reference: unmodified H3 peptide; sites T3.
For experiment [2], the target named is Histone-H3 (1-21) peptide phosphorylated at Thr-3 (UniProt P68431). The experiment is described as follows: fluorescence polarisation. A general note: Fluorescence polarisation rises when a labelled molecule tumbles more slowly, as on binding a larger partner.
The target in experiment [3] is Survivin (UniProt O15392). Nature of the experiment: biotinylated peptide pull-down, immunoblot. Particulars: reference: unmodified H3(1-21) peptide; sites T3. (Immunoblotting shows a protein as a band on a membrane.)

In the case of “Histone-H3 (from UniProt P68431) H3T3ph peptide”, the “binding against the reference” value with Survivin [1] is “stronger”. In the case of “xISD complex containing INCENP(1-58), Survivin and Dasra-A (from UniProt Q4V7H8 1-296)”, the fold enhancement of binding by T3ph against unmodified H3 in experiment [2] stood at 20 fold.

Turning to “Histone-H3 1-21 (from UniProt P68431) H3T3ph peptide”, the “binding against the reference” value in the experiment with Survivin [3] is recorded as “stronger”.
